Test results published in paper PMC11508141.

Target: T1, DJ-1 protein with the 6X-His tag, Q99497
T1 chain: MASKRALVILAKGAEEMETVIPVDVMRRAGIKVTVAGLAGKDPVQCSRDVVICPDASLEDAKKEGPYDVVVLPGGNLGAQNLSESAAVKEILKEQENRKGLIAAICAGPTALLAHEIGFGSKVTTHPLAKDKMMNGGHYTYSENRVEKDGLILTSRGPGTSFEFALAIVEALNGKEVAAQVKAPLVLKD
Experiment: cross-linking; purified DJ-1 treated with 25 mM DSS at 25 °C for 30 min, with or without P1 or P2, then SDS-PAGE (12% gel)
Details: remark: other sources report otherwise

B1: DJ-1 protein with the 6X-His tag, Q99497 1-189 (enzyme)
chain: MASKRALVILAKGAEEMETVIPVDVMRRAGIKVTVAGLAGKDPVQCSRDVVICPDASLEDAKKEGPYDVVVLPGGNLGAQNLSESAAVKEILKEQENRKGLIAAICAGPTALLAHEIGFGSKVTTHPLAKDKMMNGGHYTYSENRVEKDGLILTSRGPGTSFEFALAIVEALNGKEVAAQVKAPLVLKD
**Q.** For B1, which stoichiometry N is on record?
**A.** 2
